Measurements reported in patent US20240132578A1.

Assays:
Assay in all cases: cell-based or functional assay
HIV-1 JRFL Env (HIV-1) = biological target: HIV-1 JRFL Env (HIV-1)
[1] = biological target: HIV-1 JR-CSF Env H330A (HIV-1 isolate JR-CSF) (UniProt P20871)
[2] = biological target: HIV-1 JR-CSF Env T341A (HIV-1 isolate JR-CSF) (UniProt P20871)
[3] = biological target: HIV-1 envelope glycoprotein (Env) of isolate 92BR020, on pseudovirus (HIV-1)
[4] = biological target: HIV-1 JR-CSF Env D325A (HIV-1 isolate JR-CSF) (UniProt P20871)
[5] = biological target: HIV-1 JR-CSF Env I309A (HIV-1 (isolate JR-CSF, clade B)) (UniProt P20871)
HIV-1 APV17 Env (HIV-1) = biological target: HIV-1 APV17 Env (HIV-1)
[6] = biological target: HIV-1 envelope glycoprotein (Env) of isolate MGRM-Chronic-B-010, on pseudovirus (HIV-1)
HIV-1 APV13 Env (HIV-1) = biological target: HIV-1 APV13 Env (HIV-1)
[7] = biological target: HIV-1 JR-CSF Env F317A (HIV-1 (isolate JR-CSF, clade B)) (UniProt P20871)
[8] = biological target: HIV-1 JR-CSF Env N332A (HIV-1 isolate JR-CSF) (UniProt P20871)
[9] = biological target: HIV-1 Env of isolate MGRM-F1-014 (pseudovirus) (HIV-1)
[10] = biological target: HIV-1 envelope glycoprotein (Env) of isolate 92WR026, subtype A (HIV-1)
[11] = biological target: HIV-1 JR-CSF Env Q337A (HIV-1 isolate JR-CSF) (UniProt P20871)
[12] = biological target: HIV-1 JR-CSF Env V292A (HIV-1 (isolate JR-CSF, clade B)) (UniProt P20871)
[13] = biological target: HIV-1 JR-CSF Env P299A (HIV-1 (isolate JR-CSF, clade B)) (UniProt P20871)
[14] = biological target: HIV-1 JR-CSF Env N355A (HIV-1 isolate JR-CSF) (UniProt P20871)
[15] = biological target: HIV-1 93UG077 envelope glycoprotein (Env) on pseudovirus (HIV-1)
[16] = biological target: HIV-1 92UG005 envelope glycoprotein (Env) on pseudovirus (HIV-1)
[17] = biological target: HIV-1 APV17 envelope glycoprotein (Env) on pseudovirus (HIV-1)
[18] = biological target: HIV-1 92UG024 envelope glycoprotein (Env) on pseudovirus (HIV-1)
[19] = biological target: HIV-1 MGRM-C-027 envelope glycoprotein (Env) on pseudovirus (HIV-1)
[20] = biological target: HIV-1 MGRM-D-001 envelope glycoprotein (Env) on pseudovirus (HIV-1)
[21] = biological target: HIV-1 MGRM-C-028 envelope glycoprotein (Env) on pseudovirus (HIV-1)
[22] = biological target: HIV-1 APV6 envelope glycoprotein (Env) on pseudovirus (HIV-1)
[23] = biological target: HIV-1 CMU02 envelope glycoprotein (Env) on pseudovirus (HIV-1)
[24] = biological target: HIV-1 JR-CSF Env I323A (HIV-1 (isolate JR-CSF, clade B)) (UniProt P20871)

4858_P08 (PGT-123) (antibody)
IC50, pseudovirus neutralization (HIV-1 JRFL Env (HIV-1)): 0.0283 µg/mL | Fold IC50 increase relative to wild-type [1]: 0.3 fold | Fold IC50 increase relative to wild-type [2]: 0.3 fold | IC50, pseudovirus neutralization [3]: 0.008 µg/mL | Fold IC50 increase relative to wild-type [4]: 64 fold | Fold IC50 increase relative to wild-type [5]: 1.6 fold | IC50, pseudovirus neutralization (HIV-1 APV17 Env (HIV-1)): 0.18 µg/mL | IC50, pseudovirus neutralization [6]: 0.009 µg/mL | IC50, pseudovirus neutralization (HIV-1 APV13 Env (HIV-1)): 0.222 µg/mL | Fold IC50 increase relative to wild-type [7]: 3.1 fold | Fold IC50 increase relative to wild-type [8]: > 200 fold | IC50 (µg/mL), pseudovirus neutralization [9]: 0.111 µg/mL | IC50, pseudovirus neutralization [10]: 0.012 µg/mL

5141_B17 (PGT-126) (antibody)
IC50, pseudovirus neutralization (HIV-1 JRFL Env (HIV-1)): 0.014 µg/mL | Fold IC50 increase relative to wild-type [11]: 0.4 fold | Fold IC50 increase relative to wild-type [12]: 5 fold | IC50, pseudovirus neutralization [3]: 0.015 µg/mL | Fold IC50 increase relative to wild-type [13]: 0.2 fold | IC50, pseudovirus neutralization (HIV-1 APV17 Env (HIV-1)): 0.501 µg/mL | IC50, pseudovirus neutralization [6]: 0.005 µg/mL | IC50, pseudovirus neutralization (HIV-1 APV13 Env (HIV-1)): 0.012 µg/mL | Fold IC50 increase relative to wild-type [14]: 0.2 fold | Fold IC50 increase relative to wild-type [8]: 181 fold | IC50 (µg/mL), pseudovirus neutralization [9]: > 50 µg/mL | IC50, pseudovirus neutralization [10]: 0.008 µg/mL

5343_B08 (PGT-135) (antibody)
Neutralization IC80 [15]: > 10 µg/mL | Neutralization IC90 [15]: > 10 µg/mL | Neutralization IC95 [15]: > 10 µg/mL | neutralization IC50 [15]: > 10 µg/mL | Fold IC50 increase relative to wild-type [11]: 2.1 fold | Fold IC50 increase relative to wild-type [12]: 2 fold | Neutralization IC80 [16]: > 10 µg/mL | Neutralization IC90 [16]: > 10 µg/mL | Neutralization IC95 [16]: > 10 µg/mL | neutralization IC50 [16]: > 10 µg/mL | Fold IC50 increase relative to wild-type [1]: > 250 fold | Neutralization IC80 [17]: > 10 µg/mL | Neutralization IC90 [17]: > 10 µg/mL | Neutralization IC95 [17]: > 10 µg/mL | neutralization IC50 [17]: > 10 µg/mL | Fold IC50 increase relative to wild-type [2]: 0.6 fold | Neutralization IC80 [18]: 0.054 µg/mL | Neutralization IC90 [18]: 0.122 µg/mL | Neutralization IC95 [18]: 0.267 µg/mL | neutralization IC50 [18]: 0.0139 µg/mL | Neutralization IC80 [19]: > 10 µg/mL | Neutralization IC90 [19]: > 10 µg/mL | Neutralization IC95 [19]: > 10 µg/mL | neutralization IC50 [19]: > 10 µg/mL | Neutralization IC80 [20]: > 10 µg/mL | Neutralization IC90 [20]: > 10 µg/mL | Neutralization IC95 [20]: > 10 µg/mL | neutralization IC50 [20]: > 10 µg/mL | Fold IC50 increase relative to wild-type [13]: 0.36 fold | Neutralization IC80 [21]: > 10 µg/mL | Neutralization IC90 [21]: > 10 µg/mL | Neutralization IC95 [21]: > 10 µg/mL | neutralization IC50 [21]: 2.16 µg/mL | Neutralization IC80 [22]: > 10 µg/mL | Neutralization IC90 [22]: > 10 µg/mL | Neutralization IC95 [22]: > 10 µg/mL | neutralization IC50 [22]: > 10 µg/mL | Fold IC50 increase relative to wild-type [8]: > 250 fold | Neutralization IC80 [23]: > 10 µg/mL | Neutralization IC90 [23]: > 10 µg/mL | Neutralization IC95 [23]: > 10 µg/mL | neutralization IC50 [23]: > 10 µg/mL

5136_H01 (PGT-131) (antibody)
Fold IC50 increase relative to wild-type [11]: 1.3 fold | Fold IC50 increase relative to wild-type [12]: 1.4 fold | Fold IC50 increase relative to wild-type [2]: 1.3 fold | Fold IC50 increase relative to wild-type [4]: > 170 fold | Fold IC50 increase relative to wild-type [5]: 8.8 fold | Fold IC50 increase relative to wild-type [13]: 2 fold | Fold IC50 increase relative to wild-type [14]: 2.3 fold | Fold IC50 increase relative to wild-type [24]: 38 fold | Fold IC50 increase relative to wild-type [7]: 96 fold

5123_A06 (PGT-125) (antibody)
IC50, pseudovirus neutralization (HIV-1 JRFL Env (HIV-1)): 0.0156 µg/mL | Fold IC50 increase relative to wild-type [11]: 0.8 fold | Fold IC50 increase relative to wild-type [12]: 3.3 fold | IC50, pseudovirus neutralization [3]: 0.016 µg/mL | Fold IC50 increase relative to wild-type [4]: 0.4 fold | Fold IC50 increase relative to wild-type [13]: 0.2 fold | IC50, pseudovirus neutralization (HIV-1 APV17 Env (HIV-1)): 7.31 µg/mL | IC50, pseudovirus neutralization [6]: 0.006 µg/mL | IC50, pseudovirus neutralization (HIV-1 APV13 Env (HIV-1)): 0.0128 µg/mL | Fold IC50 increase relative to wild-type [14]: 1.2 fold | Fold IC50 increase relative to wild-type [8]: 2 fold | IC50 (µg/mL), pseudovirus neutralization [9]: > 50 µg/mL | IC50, pseudovirus neutralization [10]: 0.007 µg/mL
